In one data set the target is T1, SETX-HD-DE/AA (Homo sapiens, UniProt Q7Z333 1674-2677, D2181A;E2182A).
T1 sequence: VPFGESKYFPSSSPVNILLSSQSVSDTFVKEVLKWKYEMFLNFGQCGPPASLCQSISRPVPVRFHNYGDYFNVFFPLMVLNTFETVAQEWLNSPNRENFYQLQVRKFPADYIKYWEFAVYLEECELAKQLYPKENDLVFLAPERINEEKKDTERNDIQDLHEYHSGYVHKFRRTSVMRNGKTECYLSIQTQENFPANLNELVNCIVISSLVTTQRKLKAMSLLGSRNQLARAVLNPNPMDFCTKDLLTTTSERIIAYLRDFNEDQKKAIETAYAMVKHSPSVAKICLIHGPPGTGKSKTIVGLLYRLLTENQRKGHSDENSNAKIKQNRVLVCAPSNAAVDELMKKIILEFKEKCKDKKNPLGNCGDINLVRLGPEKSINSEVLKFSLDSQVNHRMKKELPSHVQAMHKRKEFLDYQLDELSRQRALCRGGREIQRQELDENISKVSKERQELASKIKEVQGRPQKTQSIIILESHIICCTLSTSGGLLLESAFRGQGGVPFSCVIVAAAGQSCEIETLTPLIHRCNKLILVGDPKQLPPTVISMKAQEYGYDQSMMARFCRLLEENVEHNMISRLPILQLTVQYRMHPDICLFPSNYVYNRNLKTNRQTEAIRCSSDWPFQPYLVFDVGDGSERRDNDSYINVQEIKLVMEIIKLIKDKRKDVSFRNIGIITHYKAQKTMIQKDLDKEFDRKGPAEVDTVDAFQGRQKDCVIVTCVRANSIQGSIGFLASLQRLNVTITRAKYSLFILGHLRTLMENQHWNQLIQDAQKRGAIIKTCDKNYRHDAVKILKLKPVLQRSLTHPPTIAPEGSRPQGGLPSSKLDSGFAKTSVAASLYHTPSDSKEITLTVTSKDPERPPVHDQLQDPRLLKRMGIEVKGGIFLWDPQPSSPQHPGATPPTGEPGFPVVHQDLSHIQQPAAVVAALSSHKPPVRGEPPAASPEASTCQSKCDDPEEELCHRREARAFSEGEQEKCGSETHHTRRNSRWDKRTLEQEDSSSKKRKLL
As to the kind of experiment: EMSA. On the technique in general: Mobility shift assays separate free from complexed probe on a gel.

Another data set concerns the target T2, SETX-HD-R/H (Homo sapiens, UniProt Q7Z333 1674-2677, R2136H).
T2 sequence: T1 sequence with R463H, A508D, A509E
The data set is described as follows: EMSA.

Where a chain is given by its changes, count along the chain named.

B1: ssRNA pRMS678 (61 nt) (ssRNA)
RNA: UUGUCUUCUCAUAAAUUUAAUCCCCGUACGCUUAUACUCCUUUAACUACCCAGUCUUCCCG
In the case of B1, the binding result with SETX-HD-DE/AA and with SETX-HD-R/H was “binds” in each case.

The record behind these values is article PMC10085699.
